Experimental data: patent publication US20100285988A1 (Memorial Sloan Kettering, published 2010)
Where no end group is shown, it is not given here. [ ]: non-standard residue; d: D form. Bpa = N[C@@H](Cc1ccc(C(=O)c2ccccc2)cc1)C(=O)O

What was measured:
[1] = molecular target: T1, APH-1a (human, UniProt Q96BI3 1-265, limits assumed); test: photoaffinity labeling of HeLa membrane, streptavidin capture, western blot
T1 construct: Subunit of the γ-secretase complex in HeLa membrane
Excerpt: (§1) After the photolyzed membranes were solubilized, biotinylated proteins were captured, eluted and analyzed by western blotting with antibodies against biotin, PS1, nicastrin, PEN-2 and APH-1.

[2] = molecular target: T2, PEN-2 (human, UniProt Q9NZ42 1-101); test: as above
T2 construct: Subunit of the γ-secretase complex in HeLa membrane
Excerpt: as §1

B1: Aβ17-23BPA^20-biotin (peptide)
peptide: LVF[Bpa]AED-biotin
notes: used at 300 nM; also called biotinylated photoreactive peptide Aβ17-23; photoactive peptide
- binding result [1]: no binding (tested: 300 nM)
- binding result [2]: no binding (tested: 300 nM)
